B1: Multiple coagulation factor deficiency protein 2 (Homo sapiens), Q8NI22 (parent)
chain: MTMRSLLRTPFLCGLLWAFCAPGARAEEPAASFSQPGSMGLDKNTVHDQEHIMEHLEGVINKPEAEMSPQELQLHYFKMHDYDGNNLLDGLELSTAITHVHKEEGSEQAPLMSEDELINIIDGVLRDDDKNNDGYIDYAEFAKSLQ
partner: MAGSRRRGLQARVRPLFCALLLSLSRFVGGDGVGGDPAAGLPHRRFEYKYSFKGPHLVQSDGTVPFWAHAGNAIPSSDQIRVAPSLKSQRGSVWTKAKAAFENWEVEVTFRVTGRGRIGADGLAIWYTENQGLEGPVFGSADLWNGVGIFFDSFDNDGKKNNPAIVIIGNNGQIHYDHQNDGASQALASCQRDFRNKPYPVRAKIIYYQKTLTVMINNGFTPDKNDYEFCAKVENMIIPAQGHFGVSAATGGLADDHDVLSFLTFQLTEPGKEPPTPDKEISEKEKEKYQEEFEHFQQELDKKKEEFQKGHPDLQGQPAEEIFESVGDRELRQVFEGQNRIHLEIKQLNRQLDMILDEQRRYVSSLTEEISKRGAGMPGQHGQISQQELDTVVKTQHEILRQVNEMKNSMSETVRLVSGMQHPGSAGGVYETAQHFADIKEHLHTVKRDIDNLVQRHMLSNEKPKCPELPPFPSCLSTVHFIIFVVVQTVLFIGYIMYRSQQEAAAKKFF

Variants of B1 are the subject of this assay. Particulars: with lman1_chlae LMAN1, Q9TU32.
On to MTMRSLLRTPFLCGLLWAFCAPGARAEEPAASFSQPGSMGLDKNTVHDQEHIMEHLEGVINKPEAEMSPQELQLHYFKMHDYDGNNLLDGLELSTAITHVHKEEGSEQAPLMSEDELINIIDGVLRDDEKNNDGYIDYAEFAKSLQ [D129E], for which the “effect of a mutation on the interaction” value is “disrupting interaction strength”.
Next, MTMRSLLRTPFLCGLLWAFCAPGARAEEPAASFSQPGSMGLDKNTVHDQEHIMEHLEGVINKPEAEMSPQELQLHYFKMHDYDGNNLLDGLELSTAITHVHKEEGSEQAPLMSEDELINIIDGVLRDDDKNNDGYVDYAEFAKSLQ [I136V]: “decreasing interaction strength”.
Next, MTMRSLLRTPFLCGLLWAFCAPGARAEEPAASFSQPGSMGLDKNTVHDQEHIMEHLEGVINKPEAEMSPQELQLHYFKMHDYDGNNLLDGLELSTAITHVHKEEGSEQAPLMSEDELINIIDGVLRDDDKNNDGYTDYAEFAKSLQ [I136T]: “disrupting interaction strength”.

These data come from IntAct's records for PubMed 12717434.
